Experimental findings from article PMC6626044, “Molecular basis of egg coat cross-linking sheds light on ZP1-associated female infertility” (Nature Communications, 2019) are described below.

Data set [1] addresses chicken ZP1 ZP-N1 domain, recombinant, wild type (chicken). The experiment in a line: non-reducing against reducing SDS-PAGE with immunoblot; conditioned medium of transfected HEK293 cells, anti-5His immunoblot; shows only covalent (disulphide-bonded) oligomers.
The target is the same in data set [2]. Put plainly: SEC; IMAC-purified protein, analytical SEC at 4 °C in 20 mM Na-HEPES pH 7.8, 150 mM NaCl (HiLoad 26/600 Superdex 75 pg or Superdex 75 Increase 10/300 GL), fractions on Coomassie-stained SDS-PAGE. Background: Size exclusion chromatography separates by hydrodynamic size, large species first.
Data set [3] concerns the target chicken ZP1, full length, 6His-tagged (chicken). Put plainly: non-reducing against reducing SDS-PAGE with immunoblot; conditioned medium of transfected HEK293 cells, anti-5His immunoblot; shows only covalent (disulphide-bonded) oligomers. In general terms: In western blotting, separated proteins are transferred to a membrane and probed.
For data set [4], the target named is chicken ZP4 ZP-N1 domain, 6His-tagged (chicken). Put plainly: SEC; IMAC-purified protein, analytical SEC at 4 °C in 20 mM Na-HEPES pH 7.8, 150 mM NaCl (HiLoad 26/600 Superdex 75 pg or Superdex 75 Increase 10/300 GL), fractions on Coomassie-stained SDS-PAGE.
In data set [5] the target is ~21 kDa N-terminal fragment of native chicken ZP1 (chicken). The experiment in a line: non-reducing against reducing SDS-PAGE with immunoblot; SEC fractions (Sephacryl S-300 HR) of chicken egg coat solubilised by sperm protease, anti-cZP1 N-terminal fragment polyclonal; bands confirmed by MALDI-MS/MS.
Data set [6] deals with the molecule itself. The experiment in a line: SEC; IMAC-purified protein, analytical SEC at 4 °C in 20 mM Na-HEPES pH 7.8, 150 mM NaCl (HiLoad 26/600 Superdex 75 pg or Superdex 75 Increase 10/300 GL), fractions on Coomassie-stained SDS-PAGE.
Data set [7] deals with the molecule itself. The experiment in a line: non-reducing against reducing SDS-PAGE with immunoblot; conditioned medium of transfected HEK293 cells, anti-5His immunoblot; shows only covalent (disulphide-bonded) oligomers.

Usually stoichiometry N stands for the number of molecules, sites or subunits per partner or assembly. As to “chicken ZP1 ZP-N1 domain, recombinant, wild type (domain or fragment)”, the stoichiometry N in data set [1] and in data set [2] was 2 in each case.

The molecule “chicken ZP1, full length, 6His-tagged (natural protein)” came in with a stoichiometry N in data set [3] of 2.

For the molecule “chicken ZP4 ZP-N1 domain, 6His-tagged (from UniProt A0A8V0ZLW5 1-148) (domain or fragment)”, the stoichiometry N in data set [4] was 2.

Consider “~21 kDa N-terminal fragment of native chicken ZP1 (domain or fragment)”, for which the stoichiometry N in data set [5] stood at 2.

B1: mouse ZP1 ZP-N1 domain, 6His-tagged, wild type (domain or fragment, UniProt Q62005 21-141, looked up)
chain: QRLHLEPGFEYSYDCGVRGMQLLVFPRPNQTVQFKVLDEFGNRFEVNNCSICYHWVTSEAQEHTVFSADYKGCHVLEKDGRFHLRVFIQAVLPNGRVDIAQDVTLICPKPDHTVTPDPYLA
notes: signal peptide in the construct; mouse ZP1 ZP-N1 domain, M1-A141, in pHLsec3; Heterogeneous glycosylation at N49 and N68 gives two bands on SDS-PAGE; also called mZP1-N1; mZP1-N1_(M1-A141); source: HEK293, transiently transfected; conditioned medium, and purified (IMAC, SEC); not shown: 6His, C-terminal, kept
For B1, the “stoichiometry N” value in data set [6] was found to be 2.

B2: human ZP1, wild type, 6His-tagged (natural protein, UniProt P60852 26-553, looked up)
chain: RWLQPDPGLPGLRHSYDCGIKGMQLLVFPRPGQTLRFKVVDEFGNRFDVNNCSICYHWVTSRPQEPAVFSADYRGCHVLEKDGRFHLRVFMEAVLPNGRVDVAQDATLICPKPDPSRTLDSQLAPPAMFSVSTPQTLSFLPTSGHTSQGSGHAFPSPLDPGHSSVHPTPALPSPGPGPTLATLAQPHWGTLEHWDVNKRDYIGTHLSQEQCQVASGHLPCIVRRTSKEACQQAGCCYDNTREVPCYYGNTATVQCFRDGYFVLVVSQEMALTHRITLANIHLAYAPTSCSPTQHTEAFVVFYFPLTHCGTTMQVAGDQLIYENWLVSGIHIQKGPQGSITRDSTFQLHVRCVFNASDFLPIQASIFPPPSPAPMTQPGPLRLELRIAKDETFSSYYGEDDYPIVRLLREPVHVEVRLLQRTDPNLVLLLHQCWGAPSANPFQQPQWPILSDGCPFKGDSYRTQMVALDGATPFQSHYQRFTVATFALLDSGSQRALRGLVYLFCSTSACHTSGLETCSTACSTGTTRQ
notes: human zona pellucida glycoprotein 1 (hZP1), wild type, synthetic cDNA in pHLsec3; the secreted form in the medium was analysed; also called hZP1; full-length hZP1; source: HEK293T, transiently transfected, secreted into the conditioned medium
Turning to B2, the “stoichiometry N” value in data set [7] amounted to 2.

B3: human ZP1 ZP-N1 domain, H102 mutant (domain or fragment)
chain: RWLQPDPGLPGLRHSYDCGIKGMQLLVFPRPGQTLRFKVVDEFGNRFDVNNCSICYHWVTSRPQEPAVFSADYRGCAVLEKDGRFHLRVFMEAVLPNGRVDVAQDATLICPKPDPSRTLDSQLA
For the molecule B3, the “stoichiometry N” value in data set [7] was found to be 2.

B4: human ZP1 ZP-N1 domain, His-tagged, wild type (domain or fragment, UniProt P60852 26-149, looked up)
chain: RWLQPDPGLPGLRHSYDCGIKGMQLLVFPRPGQTLRFKVVDEFGNRFDVNNCSICYHWVTSRPQEPAVFSADYRGCHVLEKDGRFHLRVFMEAVLPNGRVDVAQDATLICPKPDPSRTLDSQLA
notes: signal peptide in the construct; human ZP1 ZP-N1 domain, M1-A149; also called hZP1-N1; hZP1_(M1-A149); source: HEK293T, transiently transfected; conditioned medium, and purified (IMAC, SEC); not shown: His, C-terminal, kept
As to B4, the “stoichiometry N” value in data set [7] came to 2.

B5: human ZP1 ZP-N1 domain, H82 mutant (domain or fragment)
chain: RWLQPDPGLPGLRHSYDCGIKGMQLLVFPRPGQTLRFKVVDEFGNRFDVNNCSICYAWVTSRPQEPAVFSADYRGCHVLEKDGRFHLRVFMEAVLPNGRVDVAQDATLICPKPDPSRTLDSQLA
On to B5, for which, in data set [7], the “stoichiometry N” value is 2.
